Assay results as given in PMC8382222 (2021).
Values belong to the binder of their own block, whether it stands above or below them.

Columns and labels:
CRP-1 peptide = CRP-1 peptide (C-terminal amide (amidate version); cyclized); assay: SPR
VEGF-114 peptide = VEGF-114 peptide (C-terminal amide (amidate version); cyclized); assay: SPR

- Kd (CRP-1 peptide): 12 µM
- koff (CRP-1 peptide): 0.046 s⁻¹
B1: C-reactive protein (CRP) (natural protein)
chain: QTDMSRKAFVFPKESDTSYVSLKAPLTKPLKAFTVCLHFYTELSSTRGYSIFSYATKRQDNEILIFWSKDIGYSFTVGGSEILFEVPEVTVAPVHICTSWESASGIVEFWVDGKPRVRKSLKKGYTVGAEASIILGQEQDSFGGNFEGSQSLVGDIGNVNMWDFVLSPDEINTIYLGGPFSPNVLNWRALKYEVQGEVFTKPQLWP

- Kd (VEGF-114 peptide): 10.3 µM
- koff (VEGF-114 peptide): 0.75 s⁻¹
B2: vascular endothelial growth factor (Recombinant Human VEGF165) (ligand)
chain: APMAEGGGQNHHEVVKFMDVYQRSYCHPIETLVDIFQEYPDEIEYIFKPSCVPLMRCGGCCNDEGLECVPTEESNITMQIMRIKPHQGQHIGEMSFLQHNKCECRPKKDRARQENPCGPCSERRKHLFVQDPQTCKCSCKNTDSRCKARQLELNERTCRCDKPRR
